Assay results from US20100216170A1.

Legend:
[1] = target: mutant membrane-bound TNFα on stably transfected CHO cells (B-220 cells) (UniProt P01375); assay: FACS, gate P4 (CHO cells with anti-CD19 beads), middle panel of FIG. 3
[2] = target: mutant membrane-bound TNFα on stably transfected CHO cells (B-220 cells) (UniProt P01375); assay: FACS, beads with CHO-TNFα (B220), sample 2
[3] = target: mutant membrane-bound TNFα on stably transfected CHO cells (B-220 cells) (UniProt P01375); assay: FACS, gate P4 (CHO cells with anti-CD19 beads), FIG. 4

Chain of UniProt P01375 (P01375 whole entry, change not shown): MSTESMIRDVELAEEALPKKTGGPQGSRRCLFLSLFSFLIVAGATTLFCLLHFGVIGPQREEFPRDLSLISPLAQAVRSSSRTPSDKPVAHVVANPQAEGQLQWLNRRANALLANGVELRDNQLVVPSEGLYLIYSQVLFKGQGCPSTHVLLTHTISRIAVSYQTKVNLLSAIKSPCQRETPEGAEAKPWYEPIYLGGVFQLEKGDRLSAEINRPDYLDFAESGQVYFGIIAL

- #Events [1]: 6 events
- % Parent [1]: 0.1%
- % Total [1]: 0.1%
- % bound beads [2]: 0.9%
- #Events [3]: 2 events
- % Parent [3]: 0%
- % Total [3]: 0%
Substance: APC-labeled unrelated antibody (anti-CD19) coated on beads
